In patent US20240018189A1 (PROTAGONIST THERAPEUTICS, published 2024):
Starred links: 1 amine or outer side, 2 acyl side, 3 side chain; linkers in the order of their positions; H or OH if unused. Positions of bridges follow the written chain, without caps; N, C: chain ends. Non-standard residues stand in square brackets, D forms with d. Groups on a side chain read outwards from the residue. *: point of attachment. PEG12 = NCCOCCOCCOCCOCCOCCOCCOCCOCCOCCOCCOCCOCCC(=O)O; Phe(4-COOH) = N[C@@H](Cc1ccc(C(=O)O)cc1)C(=O)O; Phe(4-tBu) = CC(C)(C)c1ccc(C[C@H](N)C(=O)O)cc1; Pro(4Amino) = proline with a 4-amino group; Phe(4-CN) = N#Cc1ccc(C[C@H](N)C(=O)O)cc1; Dip = N[C@H](C(=O)O)C(c1ccccc1)c1ccccc1; γGlu = O=C(O)[C@H](CCC(=O)[*:2])N[*:1]; 2Nal = N[C@@H](Cc1ccc2ccccc2c1)C(=O)O; AEF = NCCOc1ccc(C[C@H](N)C(=O)O)cc1; Arg(Dimethyl) = dimethyl-arginine; Palmitoyl = CCCCCCCCCCCCCCCC(=O)*; αMeF = C[C@](N)(Cc1ccccc1)C(=O)O; β3hF = N[C@H](CC(=O)O)Cc1ccccc1; Cit = NC(=O)NCCC[C@H](N)C(=O)O; Spiral_Pip = not defined here; Isovaleryl = CC(C)CC(=O)*; αMeC = C[C@](N)(CS)C(=O)O; Npc = nipecotic acid; Ahx = NCCCCCC(=O)O

T1: human ferroportin (SLC40A1) fused in frame with GFP (human) (UniProt Q9NP59)
T1 sequence (looked up): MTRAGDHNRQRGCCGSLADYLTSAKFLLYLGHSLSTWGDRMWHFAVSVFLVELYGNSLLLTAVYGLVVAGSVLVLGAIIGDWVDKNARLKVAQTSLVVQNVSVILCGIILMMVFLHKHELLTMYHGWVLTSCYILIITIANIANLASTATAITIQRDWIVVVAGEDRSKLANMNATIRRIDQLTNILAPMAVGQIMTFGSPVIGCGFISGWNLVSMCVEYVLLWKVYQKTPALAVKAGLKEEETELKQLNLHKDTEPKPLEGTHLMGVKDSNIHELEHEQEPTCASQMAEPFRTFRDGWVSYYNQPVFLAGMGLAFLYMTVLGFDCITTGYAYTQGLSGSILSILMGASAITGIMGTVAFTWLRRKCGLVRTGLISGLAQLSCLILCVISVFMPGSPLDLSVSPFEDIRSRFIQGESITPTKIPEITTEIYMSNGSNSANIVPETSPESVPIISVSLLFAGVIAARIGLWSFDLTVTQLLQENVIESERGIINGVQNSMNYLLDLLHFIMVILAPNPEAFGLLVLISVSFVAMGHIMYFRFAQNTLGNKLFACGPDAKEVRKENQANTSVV


Molecular target: T1, human ferroportin (SLC40A1) fused in frame with GFP (human)
Assay: cell-based or functional assay

FPN EC50 | Binder | further results
10.8 nM | Isovaleryl-DTH[Dip]PCI[β3hF]K([Ahx-Palmitoyl])[dK]C-NH2 (disulfide 6-11 (inferred)) [Compd. ID 18] | 
6.66 nM | DTHXPCIKXKKC (N-term isovaleric acid; 4 Dpa; 8 (D)Lys; 9 bhPhe; 10 Lys(Ahx-Palm); 11 (D)Lys; C-term NH2) [Compd. ID 20] | 
4.56 nM | Isovaleryl-DTH[Dip][Npc]CIK([γGlu-Palmitoyl])[β3hF]C[dK]-NH2 (disulfide 6-10 (inferred)) [Compd. ID 19] | 
37.5 nM | DTHXPCIKXKXC (not fully specified; N-term isovaleric acid; 4 Dpa; 8 (D)Lys; 9 bhPhe; 10 Lys(Ahx-Palm); 11 Spiral_Pip; C-term NH2) [Compd. ID 21] | 
 | Isovaleryl-DTHFP[αMeC]I[dK]FK([PEG12-Palmitoyl])KC-NH2 (disulfide 6-12 (inferred)) [Seq. No. 353] | IC50: FPN internalisation: 21.5 nM
 | Isovaleryl-DTHF[Npc]CI[dK]FK([PEG12-Palmitoyl])[dK]C-NH2 (disulfide 6-12 (inferred)) [Seq. No. 351] | IC50: FPN internalisation: 13.2 nM
12.7 nM | DTHXPCIKXKC (not fully specified; N-term isovaleric acid; 4 Dpa; 8 Lys[1Peg2-1Peg2-Ahx-C18_Diacid]; 9 bhPhe; 10 (D)Lys; C-term NH2) [Compd. ID 11] | 
3.05 nM | DTHXPCIKXKKC (not fully specified; N-term isovaleric acid; 4 Dpa; 8 Lys[1Peg2-1Peg2-Ahx-C18_Diacid]; 9 bhPhe; 11 (D)Lys; C-term NH2) [Compd. ID 10] | 
 | DTHXXCIKFKKC (N-term isovaleric acid; 4 Dpa; 5 bhPro; 8 (D)Lys; 10 Lys(PEG12_Palm); 11 (D)Lys; C-term NH2) [Seq. No. 350] | IC50: FPN internalisation: 0.8 nM
25.7 nM | DTHXPCIKXKPC (N-term isovaleric acid; 4 Dpa; 8 (D)Lys; 9 bhPhe; 10 Lys(Ahx-Palm); 11 Pro(4-Amino); C-term NH2) [Compd. ID 25] | 
23.6 nM | Isovaleryl-DTH[Dip]PCI[dK][β3hF]K([PEG12-Palmitoyl])PRSK[Sarc]C-NH2 (disulfide 6-16 (inferred)) [Compd. ID 34] | 
5.85 nM | DTHXPCIKXKKC (N-term isovaleric acid; 4 Dpa; 8 (D)Lys; 9 bhPhe; 10 Lys[Palm]; C-term NH2) [Compd. ID 16] | 
 | Isovaleryl-DTH[Dip][Npc]CI[dK][Phe(4-tBu)]K([PEG12-Palmitoyl])KC-NH2 (disulfide 6-12 (inferred)) [Seq. No. 359] | IC50: FPN internalisation: 8.57 nM
 | Isovaleryl-DTH[Dip][Npc]CI[dK][Phe(4-COOH)]K([PEG12-Palmitoyl])KC-NH2 (disulfide 6-12 (inferred)) [Seq. No. 356] | IC50: FPN internalisation: 0.1 nM
25.4 nM | DTHXPCIKXKPRSKC (N-term isovaleric acid; 4 Dpa; 8 (D)Lys; 9 bhPhe; 10 Lys(2Peg11′_Palm); C-term NH2) [Compd. ID 33] | 
> 3000 nM | Isovaleryl-DTH[Dip][Npc]CI[dK][β3hF]KC[dK]-NH2 (disulfide 6-11 (inferred); not fully specified (residue 10)) [Compd. ID 15] | 
30.1 nM | DTHXPCIKXKRC (N-term isovaleric acid; 4 Dpa; 8 (D)Lys; 9 bhPhe; 10 Lys(Ahx-Palm); 11 Arg(Nitro); C-term NH2) [Compd. ID 22] | 
 | Isovaleryl-DTH[Dip][Npc]CI[dK]FK([PEG12-Palmitoyl])[dK]C-NH2 (disulfide 6-12 (inferred)) [Seq. No. 352] | IC50: FPN internalisation: 6.48 nM
30 nM | Isovaleryl-DTHFPCIKFKPRSKGCK-NH2 (disulfide 6-16 (inferred); not fully specified (residue 10); also: K10: Lys[PEG11-Palm] (Lys[2PEG11-Palm]) [Ref. Cmpd. 1] | Potency EC50: 30 nM
18.5 nM | DTHXPCIKXKKC (N-term isovaleric acid; 4 Dpa; 8 (D)Lys; 9 bhPhe; 10 Lys(Ahx_Ahx_Ahx_Palm); 11 (D)Lys; C-term NH2) [Compd. ID 40] | 
 | DTHXPCIKXKKC (N-term isovaleric acid; 4 Dpa; 8 (D)Lys; 9 bhPhe; 10 Lys(PEG12_Palm); 11 (D)Lys; C-term NH2) [Seq. No. 349] | IC50: FPN internalisation: 11.2 nM
32.2 nM | DTHXPCIKXKXC (N-term isovaleric acid; 4 Dpa; 8 (D)Lys; 9 bhPhe; 10 Lys(Ahx-Palm); 11 Cav; C-term NH2) [Compd. ID 26] | 
 | Isovaleryl-DTHFPCI[dK]FK([PEG12-Palmitoyl])K[αMeC]-NH2 (disulfide 6-12 (inferred)) [Seq. No. 355] | IC50: FPN internalisation: 7.55 nM
 | Isovaleryl-DTH[Dip][Npc]CI[dK]FK([PEG12-Palmitoyl])KC-NH2 (disulfide 6-12 (inferred)) [Seq. No. 360] | IC50: FPN internalisation: 9.64 nM

FPN EC50 | Binder | further results
33 nM | DTHXPCIKXKKC (N-term isovaleric acid; 4 Dpa; 8 (D)Lys; 9 bhPhe; 10 Lys(Lys[Peg11_Palm]2); 11 (D)Lys; C-term NH2) [Compd. ID 38] | 
11.5 nM | Isovaleryl-DTH[Dip][Npc]CI[dK][β3hF]K([Ahx-Palmitoyl])C[dK]-NH2 (disulfide 6-11 (inferred)) [Compd. ID 12] | 
18.5 nM | DTHXPCIKXKKC (N-term isovaleric acid; 4 Dpa; 8 (D)Lys; 9 bhPhe; 10 Lys(2Peg11′_Peg11_Palm); 11 (D)Lys; C-term NH2) [Compd. ID 41] | 
18 nM | Isovaleryl-DTH[Dip]PCI[Pro(4Amino)][β3hF]K([Ahx-Palmitoyl])[dK]C-NH2 (disulfide 6-12 (inferred)) [Compd. ID 31] | 
19.6 nM | DTHXPCIKXKKC (N-term isovaleric acid; 4 Dpa; 8 (D)Lys; 9 bhPhe; 10 Lys(2Peg11′_Ahx_Palm); 11 (D)Lys; C-term NH2) [Compd. ID 37] | 
10.6 nM | Isovaleryl-DTH[Dip]PCI[Arg(Dimethyl)][β3hF]K([Ahx-Palmitoyl])[dK]C-NH2 (disulfide 6-12 (inferred)) [Compd. ID 29] | 
23.1 nM | Isovaleryl-DTH[Dip]PCI[dK][β3hF]K([PEG12-Palmitoyl])P[dK]S[dK][Sarc]C[dK]-NH2 (disulfide 6-16 (inferred)) [Compd. ID 35] | 
19.3 nM | DTHXPCIKXKKC (N-term isovaleric acid; 4 Dpa; 8 (D)Lys; 9 bhPhe; 10 Lys(Ahx_Ahx_Palm); 11 (D)Lys; C-term NH2) [Compd. ID 39] | 
8.29 nM | DTHXPCIKXKKC (N-term isovaleric acid; 4 Dpa; 8 (D)Lys; 9 bhPhe; 10 Lys(Ahx-Palm); C-term NH2) [Compd. ID 17] | 
26.6 nM | Isovaleryl-DTH[Dip]PCI[Cit][β3hF]K([Ahx-Palmitoyl])[dK]C-NH2 (disulfide 6-12 (inferred)) [Compd. ID 30] | 
26.3 nM | Isovaleryl-DTH[Dip]PCI[Spiral_Pip][β3hF]K([Ahx-Palmitoyl])[dK]C-NH2 (disulfide 6-12 (inferred); reading uncertain) [Compd. ID 27] | 
11.8 nM | DTHXPCIKXKRC (N-term isovaleric acid; 4 Dpa; 8 (D)Lys; 9 bhPhe; 10 Lys(Ahx-Palm); C-term NH2) [Compd. ID 2] | 
45.8 nM | DTHXPCIKXKXC (N-term isovaleric acid; 4 Dpa; 8 (D)Lys; 9 bhPhe; 10 Lys(Ahx-Palm); 11 Cit; C-term NH2) [Compd. ID 24] | 
 | Isovaleryl-DTH[Dip][Npc]CI[dK][2Nal]K([PEG12-Palmitoyl])KC-NH2 (disulfide 6-12 (inferred)) [Seq. No. 357] | IC50: FPN internalisation: 10.2 nM
16.1 nM | Isovaleryl-DTH[Dip][Npc]CI[dK][β3hF]K([γGlu-Palmitoyl])C[dK]-NH2 (disulfide 6-11 (inferred)) [Compd. ID 13] | 
10.9 nM | DTHXPCIKXKKC (N-term isovaleric acid; 4 Dpa; 8 (D)Lys; 9 bhPhe; 10 Lys(2Peg11′_Sarc_Palm); 11 (D)Lys; C-term NH2) [Compd. ID 36] | 
27.1 nM | Isovaleryl-DTH[Dip]PCI[Arg(Nitro)][β3hF]K([Ahx-Palmitoyl])[dK]C-NH2 (disulfide 6-12 (inferred)) [Compd. ID 28] | 
 | Isovaleryl-DTH[Dip][Npc]CI[dK][Phe(4-CN)]K([PEG12-Palmitoyl])KC-NH2 (disulfide 6-12 (inferred)) [Seq. No. 347] | IC50: FPN internalisation: 23 nM
41.6 nM | DTHXPCIKXKRC (N-term isovaleric acid; 4 Dpa; 8 (D)Lys; 9 bhPhe; 10 Lys(Ahx-Palm); 11 Arg(Dimethyl); C-term NH2) [Compd. ID 23] | 
 | Isovaleryl-DTH[Dip][Npc]CI[dK][AEF]K([PEG12-Palmitoyl])KC-NH2 (disulfide 6-12 (inferred)) [Seq. No. 358] | IC50: FPN internalisation: > 3000 nM
 | Isovaleryl-DTHFP[αMeC]I[dK]FK([PEG12-Palmitoyl])K[αMeC]-NH2 (disulfide 6-12 (inferred)) [Seq. No. 354] | IC50: FPN internalisation: 10 nM
 | FICIPFHTD (all residues D-amino acids (DPhe-DIle-DCys-DIle-DPro-DPhe-DHis-DThr-DAsp); Hy- at the N-terminus; C-term NH2) [RI-Mini Hepcidin] | Potency EC50 (nM): > 10000 nM
 | Isovaleryl-DTH[Dip][Npc]CI[dK][αMeF]K([PEG12-Palmitoyl])KC-NH2 (disulfide 6-12 (inferred)) [Seq. No. 348] | IC50: FPN internalisation: 2.1 nM
